Measured values: publication doi:10.1101/2020.12.16.421545v1

Substrate: CCCC(=O)Oc1ccc([N+](=O)[O-])cc1
Assay: purified protein
Format: biochemical, uncultured Pseudomonadota bacterium
Conditions: 36 nM enzyme, no added Co2+
[1] = without Triton X-100, sigmoidal (hysteresis)

B1: Ade1 (Amazonian Dark Earth Esterase 1) (uncultured Pseudomonadota bacterium) (protein)
chain: MLYAQVNGINLHYEIEGQGQPLLLIMGLGAPAAAWDPIFVQTLTKTHQVIIYDNRGTGLSDKPDMPYSIAMFASDAVGLLDALNIPRAHVFGVSMGGMIAQELAIHYPQRVASLILGCTTPGGKHAVPAPPESLKALEGRAGLTPEEAIREGWKLSFSEEFIHTHKAELEAHIPRLLAQLTPRFAYERHFQATMTLRVFKQLKEIQAPTLVATGRDDMLIPAVNSEILAREIPGAELAIFESAGHGFVTSAREPFLKVLKEFLARQSV
For B1, the K0.5 (with Triton X-100) was 254 ± 25 µM, the kcat (with Triton X-100) was 47 ± 1 s⁻¹ and the K0.5 [1] was 392 ± 29 µM. The kcat [1] was 94 ± 3 s⁻¹.
